# Results: patent publication US20070213253A1, “Synuclein Mutant Having Aggregation-Inhibitory Activity” (priority 2003, published 2007)
# Target: T1, wild type α-synuclein (Homo sapiens, UniProt P37840)
# T1 construct: made in house; host or cells: Escherichia coli (pTYB1/α-syn; strain ER2566 is named for the mutants)
# Assay: Inhibition of fibril formation of wild type α-synuclein by partial structure peptide, TfT fluorescence
# Type: biochemical
# Conditions: peptide 0.2 mg/ml in 2 mg/ml wild type α-synuclein, 37° C.
# Description: A synthetic α-synuclein partial structure peptide consisting of 10 amino acid residues of NH2-[…]COOH was dissolved at 0.2 mg/ml in a 2 mg/ml solution of purified wild type α-synuclein, and incubated at 37° C. Aliquot of 10 μl was collected in predetermined intervals. To the collected sample was added a buffer solution of 10 mM Tris-HCl, pH 7.4, containing a fluorescent dye thioflavine T (TfT), which specifically binds to a fibril structure, in a final concentration of 25 μM to make a volume of 100 μl, and fluorescence spectrum was monitored immediately (Ex 440 nm; Em 450-550 nm). The fibril formation rate and the amount thereof were determined from the increase in the fluorescence intensity of TfT.
substance,measurement,value
"NH2-Val-Gly-Gly-Ala-Thr-Thr-Thr-Gly-Val-Thr-COOH (H-VGGATTTGVT-OH) [α-synuclein partial structure peptide, synthetic α-synuclein partial structure peptide consisting of 10 amino acid residues]",decrease of the fibril formation ability of the wild type α-synuclein (to the extent of),about 20%
